# Experimental data published in PMC6450606, “Purification and biochemical characterization of FrsA protein from Vibrio vulnificus as an esterase” (PLoS ONE, 2019).
# Molecular target: the molecule itself
# Test: SEC; native mass of purified VvFrsA by size exclusion chromatography, buffer and concentration not told
protein,measurement,value
"Fermentation-respiration switch protein (FrsA) from Vibrio vulnificus (enzyme, UniProt Q7MN61 1-415, looked up, FrsA (fermentation-respiration switch protein) of Vibrio vulnificus; theoretical mass ca. 47 kDa; Gene cloned between NdeI and XhoI of pET-28a; also called VvFrsA; recombinant VvFrsA) MSEEVSKNLSETLFVKHKQAKETSALTQYMPTSQSLLDEIKEKNGFSWYRNLRRLQWVWQGVDPIEQEQVLARIASSKHSRTDEQWLDTVMGYHSGNWAYEWTRLGMEHQKRAGEMTNEAASEALFSASLCYSIAGYPHLKSDNLAIQAQVLANSAYLEAAKKSKYIIKQLEIPFEKGKITAHLHLTNTDKPHPVVIVSAGLDSLQTDMWRLFRDHLAKHDIAMLTVDMPSVGYSSKYPLTEDYSRLHQAVLNELFSIPYVDHHRVGLIGFRFGGNAMVRLSFLEQEKIKACVILGAPIHDIFASPQKLQQMPKMYLDVLASRLGKSVVDIYSLSGQMAAWSLKVQGFLSSRKTKVPILAMSLEGDPVSPYSDNQMVAFFSTYGKAKKISSKTITQGYEQSLDLAIKWLEDELLR",stoichiometry N,2
